Drawing on patent US20120237442A1, this text covers Kd for one substance.

pKd: −log10 of the molar value.

In the assay the target is CH1-AD1-Fab-h679. As to the kind of experiment: equilibrium gel filtration analysis of the binary complex (DDD1 dimer docking to AD1); complex also seen by SE-HPLC. (In general: In gel filtration, larger molecules generally elute earlier.)
Sequence of CH1-AD1-Fab-h679 (heavy, as listed by the source): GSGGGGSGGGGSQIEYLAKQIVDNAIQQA

By pKd is commonly meant −log10 of the Kd, conventionally taken in molar units. Consider CH1-DDD1-Fab-hMN-14, for which the pKd was 8.10.
